Results on five molecules are retold here after US20220057411A1 (PERSEUS SCIENCE GROUP, published 2022).

The target of experiment [1] is PKCg 49-52 kDa proteolytic fragment (human). Nature of the experiment: chemiluminescent capillary Western/ELISA on human plasma; 49-52 kDa band; sample signal at ROC cut-off. How it is done:
(§1) The Sensitivity was calculated using (=SUM individual disease samples)/total of all disease samples). False Positives were calculated using the (=SUM each individual healthy sample/total of all healthy samples). Specificity is defined as (1-False Positives). This statistical method maximizes sensitivity and identifies the probability of false positives. The cut-off point for each ROC curve between healthy and disease samples was calculated and then related to the total chemiluminescence signal that is represented by those probabilities. The cut-off for each sample cohort stained with PKC11, PKC13, and PKC14 antibodies are represented by a line in each graph below.
(§2) Briefly, to conduct the chemiluminescent capillary ELISA in this example, reagents and individual plasma from Normal vs. TBI clinical samples were loaded into an automated Western blot machine (using the Auto-Western service from RayBiotech Life, Inc). In the first step, sample is loaded into the capillary automatically. Proteins are then separated by size as they electophoretically migrate through a stacking and separation matrix. The separated proteins are then immobilized on the capillary wall via a proprietary photoactivated capture chemistry. […] An electropherogram is produced which plots the baseline, molecular weight and quantitative chemiluminescence signal of each peak. The quantitative signal was derived for each molecular weight band in every electropherogram. Each quantitative chemiluminescence signal was generated using the following formula; (C2-C1/C1), where C2 equals Area Under the Curve and C1 equals the baseline for that sample. […] The resulting specific chemiluminescence signal was detected and quantitated, with sensitivity down in the picograms/ml range, providing a direct measure of TBI biomarkers, i.e., PKCg, and/or PKCg proteolytic fragments.
(An ELISA detects its analyte on a solid surface through an enzyme-linked reagent.)

In experiment [2] the target is PKCg 53-60 kDa proteolytic fragment (human). Put plainly: chemiluminescent capillary Western/ELISA on human plasma (stroke vs normal); signal at the ROC point. The procedure: as §1
(§3) Briefly, to conduct the chemiluminescent capillary ELISA in this example, reagents and individual plasma from Normal vs. TBI clinical samples were loaded into an automated Western blot machine (using the Auto-Western service from RayBiotech Life, Inc). In the first step, sample is loaded into the capillary automatically. Proteins are then separated by size as they electophoretically migrate through a stacking and separation matrix. The separated proteins are then immobilized on the capillary wall via a proprietary photoactivated capture chemistry. Target proteins, i.e., PKCg and/or PKCg proteolytic fragments were identified using a primary antibody, e.g., the rabbit monoclonal antibodies described herein, and immunoprobed with an HRP-conjugated secondary goat anti-rabbit IgG antibody and chemiluminescent substrate. An electropherogram is produced which plots the baseline, molecular weight and quantitative chemiluminescence signal of each peak. The quantitative signal was derived for each molecular weight band in every electropherogram. Each quantitative chemiluminescence signal was generated using the following formula; (C2-C1/C1), where C2 equals Area Under the Curve and C1 equals the baseline for that sample. This specific chemiluminescence measure was used in comparisons of all normal human plasma compared to TBI or stroke plasma samples after staining with antibodies, i.e., PKC11, PKC13, or PKC14. Statistical comparisons were made using GraphPad Prism 8 software. The resulting specific chemiluminescence signal was detected and quantitated, with sensitivity down in the picograms/ml range, providing a direct measure of TBI biomarkers, i.e., PKCg, and/or PKCg proteolytic fragments.

The target of experiment [3] is PKCg 42-48 kDa proteolytic fragment (human). The experiment is described as above. How it is done:
as §1, §3

Experiment [4] has as its target T1, PKCg 33-36 kDa proteolytic fragment (human).
T1 construct: also called 32-36 kDa fragment
The experiment is described as above. The procedure: as §1, §3

Experiment [5] addresses PKCg 49-52 kDa proteolytic fragment (human). Put plainly: chemiluminescent capillary Western/ELISA on human plasma; 49-52 kDa band; signal at ROC cut-off. The procedure: as §1, §2
The target of experiment [6] is T2, full-length human Protein Kinase C, gamma isoform (PKCg), 63-73 kDa (human, UniProt P05129 1-697).
T2 construct: also called PKCγ; full-length PKCg (63-73 kDa)
Nature of the experiment: conclusion; clones came from ELISA/MAPIA screening against PKCg.

In experiment [7] the target is T2, full-length human Protein Kinase C, …. Put plainly: chemiluminescent capillary Western/ELISA on human plasma (stroke vs normal); signal at the ROC point. The procedure: as §1, §3
The target in experiment [8] is higher molecular weight band at 95-105 kDa (human). The experiment is described as above. How it is done: as §1, §3
The target of experiment [9] is PKCg 49-52 kDa proteolytic fragment (human). Nature of the experiment: chemiluminescent capillary Western/ELISA on human plasma; 49-52 kDa band; normal plasma sample. How it is done:
as §1
Briefly, to conduct the chemiluminescent capillary ELISA in this example, reagents and individual plasma from Normal vs. TBI clinical samples were loaded into an automated Western blot machine (using the Auto-Western service from RayBiotech Life, Inc). In the first step, sample is loaded into the capillary automatically. […] An electropherogram is produced which plots the baseline, molecular weight and quantitative chemiluminescence signal of each peak. The quantitative signal was derived for each molecular weight band in every electropherogram. Each quantitative chemiluminescence signal was generated using the following formula; (C2-C1/C1), where C2 equals Area Under the Curve and C1 equals the baseline for that sample. […]

B1: PKC13 (5H1/5K1) rabbit anti-PKCg monoclonal antibody (antibody, V domains shown)
VH: QEQLKESGGGLVTPGGTLTLTCTVSGFSLSSYAMSWVRQAPGKGLEWIGIIISGGSAYYATWAKGRFTISKTSTTVDLSITSPTTEDTATYFCARAKSGTYTGDYFTLWGQGTLVTVSS
VL: AFELTQTPASVEAAVGGTVTIKCQASESIGNALAWYQQKPGQPPKLLIYRASTLESGVPSRFKGSGSGTEFTLTISDLECADAATYYCQSYVGSRSTGYNVFGGGTEVVVK
notes: Rabbit IgG heavy chain and rabbit kappa light chain; Entries as printed seem to include a leader; no cleavage site is stated; also called mAb PKC13; PCK13
Turning to B1, in experiment [1], the “chemiluminescence signal (ROC cut-off, TBI)” value is 658 chemiluminescence units. Also, the “Signal Chemiluminescence” value in [2] came out at 3350 chemiluminescence units; in [3] it was 2210 chemiluminescence units; in experiment [4], 319 chemiluminescence units. For the same molecule, the “chemiluminescence signal (ROC cut-off, stroke)” value in experiment [5] was 999 chemiluminescence units.

B2: 4H1/4K1 rabbit anti-PKCg monoclonal antibody clone (antibody, V domains shown)
VH: QSVEESGGRLVTPGTPLTLTCTVSGFSLSLSRNAVSWVRQAPGKGLEWTGIIFGDAKTYYASWAKGRFTISKTATTVDLKITSLTTEDTATYFCVAGTGLWGQGTLVTVSS
VL: AQVLTQTASPVSAAVGSTVTINCQASQSVYNKNRLSWYQQKPGQPPKRLIYSSSTLDSGVPLRFSGSGSGTQFTLTISGVQCDDAATYYCLGSYDCSSADCNAFGGGTEVVVK
notes: Rabbit IgG heavy chain and kappa light chain; Entries as printed seem to include a leader; no cleavage site is stated
Consider B2, for which, in experiment [6], the binding result was “binds”.

B3: PKC14 (7H1/7K3) rabbit anti-PKCg monoclonal antibody (antibody, V domains shown)
VH: QSLEESGGDLVQPGASLTLTCTASGFTLTTYWICWVRQAPGKGLEWVACILTGSGSTYYASWVNGRFTISKTSSTTVTLQMTSLTAADTATYFCARYGGDATYNENLWGQGTLVTVSS
VL: AQVLTQTPSSVSAAVGGTVTINCQASQSVYNNNRLSWYQQKPGQPPKRLIYGVSTLYYGVSSRFKGSGSGTQFTLTISGMQCDDAAIYYCLGGYDCASADCYAFGGGTEVVVK
notes: Rabbit IgG heavy chain and rabbit kappa light chain; Entries as printed seem to include a leader; no cleavage site is stated; also called mAb PKC14
Consider B3, for which the “chemiluminescence signal (ROC cut-off, TBI)” value in experiment [1] came out at 299 chemiluminescence units. In addition, the “Signal Chemiluminescence” value in experiment [7] turned out to be 866 chemiluminescence units; in experiment [8], 443 chemiluminescence units; in experiment [2], 654 chemiluminescence units; in experiment [3], 633 chemiluminescence units; in experiment [4] it was 230 chemiluminescence units. Further, the “chemiluminescence signal (ROC cut-off, stroke)” value in experiment [5] was 257 chemiluminescence units.

B4: 20H1/20K3 rabbit anti-PKCg monoclonal antibody clone (antibody, V domains shown)
VH: QSVEESGGRLVTPGTPLTLTCTVSGIDLSSNAMNWVRQAPGKGLEWIGIIGFSGSTNYASWAKGRFTISKTSTTVDLKITSPTTEDTATYFCARGGLNIGMNLWGQGTLVTVSS
VL: AQVLTQTPSPVSAAVGGTVPISCQSSQSVYDNNWLAWYQQKPGQPPKLLVYYASTLASGVPSRFKGSGSGTQFTLTINDLECDDAATYYCAGGYGDTNGGASSFGGGTEVVVK
notes: as for B2
Turning to B4, the binding result in experiment [6] is on record as “binds”.

B5: PKC11 (1H1/1K1) rabbit anti-PKCg monoclonal antibody (antibody, V domains shown)
VH: QSVEESGGRLVTPGTPLALTCTVSGFSLNYYAMNWVRQAPVKGLEWIGVITSDTTYYASWAKGRFTISKTSTTVELQITSPTTEDTATYFCASGGSTTSPALWGQGTLVTVSS
VL: AQVLTQTPSPVSAAVGSTVTINCQASQSVWSKNYLSWFQQKPGQPPKQLIYSASTLASGVPSRFSGSGSGTQFTLTISDVQCDDAATYYCLGSYDCRSADCWTFGGGTEVVVK
notes: Rabbit IgG heavy chain and rabbit kappa light chain; also called mAb PKC11
Turning to B5, the “chemiluminescence signal (normal plasma sample, false positive)” value in experiment [9] worked out at 630 chemiluminescence units. The “chemiluminescence signal (ROC cut-off, TBI)” value in experiment [1] turned out to be 710 chemiluminescence units. In addition, the “Signal Chemiluminescence” value in [7] worked out at 1770 chemiluminescence units; in experiment [2], 1540 chemiluminescence units; in [3] it was 637 chemiluminescence units; in experiment [4] it was 126 chemiluminescence units. Besides, the “chemiluminescence signal (ROC cut-off, stroke)” value in [5] was 797 chemiluminescence units.
